The source of these data is ChEMBL document CHEMBL1151808, “Substrate promiscuity of the cyclic dipeptide prenyltransferases from Aspergillus fumigatus ( section sign)” (J Nat Prod, 2009).

A word on the Km: it is the concentration of substrate that gives half-maximal velocity. The kcat is the maximal rate divided by the concentration of active sites.

Substrate in data set [1]: O=C1N[C@@H](Cc2c[nH]c3ccccc23)C(=O)N2CCC[C@@H]12
The experiment in a line: (§1) Activity at Aspergillus fumigatus FtmPT1 by HPLC analysis.

Substrate in data set [2]: N[C@@H](Cc1c[nH]c2ccccc12)C(=O)O
The description is as §1.

B1: Tryprostatin B synthase ftmPT1 (Aspergillus fumigatus), Q4WAW7 (protein)
chain: MPPAPPDQKPCHQLQPAPYRALSESILFGSVDEERWWHSTAPILSRLLISSNYDVDVQYKYLSLYRHLVLPALGPYPQRDPETGIIATQWRSGMVLTGLPIEFSNNVARALIRIGVDPVTADSGTAQDPFNTTRPKVYLETAARLLPGVDLTRFYEFETELVITKAEEAVLQANPDLFRSPWKSQILTAMDLQKSGTVLVKAYFYPQPKSAVTGRSTEDLLVNAIRKVDREGRFETQLANLQRYIERRRRGLHVPGVTADKPPATAADKAFDACSFFPHFLSTDLVEPGKSRVKFYASERHVNLQMVEDIWTFGGLRRDPDALRGLELLRHFWADIQMREGYYTMPRGFCELGKSSAGFEAPMMFHFHLDGSQSPFPDPQMYVCVFGMNSRKLVEGLTTFYRRVGWEEMASHYQGNFLANYPDEDFEKAAHLCAYVSFAYKNGGAYVTLYNHSFNPVGDVSFPN
For the protein B1, in data set [1], the Km was determined as 55 µM and the kcat came out at 5.57 s⁻¹. Moreover, in data set [2], the Km was found to be 820 µM and the kcat was 0.12 s⁻¹.
